For this assay, the target named is T1, C-terminally truncated α-synuclein (residues 1-99) (UniProt P37840 1-99).
T1 construct: α-synuclein with a deletion of the C-terminus, amino acids 1-99; Uniformly 15N-enriched for the NMR experiments; also called CT-α-syn; source: E. coli BL21 (DE3), purified (SP cation exchange, Superdex 75)
The experiment in a line: NMR titration; 1H-15N HSQC of 0.3 mM 15N-enriched FL- or CT-α-syn titrated with PDI (mole ratios 10:1 to 1:1, 0-300 μM PDI); 20 mM HEPES, 100 mM NaCl, 5 mM TCEP, pH 7.0, 10% D2O, 15 °C; KD from fits of the average CSPs of residues in segment 1 and in segment 2. The following applies: both partners purified.

B1: protein disulfide isomerase (enzyme)
chain: not shown
notes: human protein disulfide isomerase (PDI); the human PDI gene cloned into pET-28a; The vector has a TEV protease cleavage site after the His6-tag; no cleavage step is described; also called PDI; source: E. coli BL21 (DE3), purified (HisTrap, Resource Q, Superdex 200)
With B1, the “KD of segment 1” value was roughly 40 µM and the “KD of segment 2” value is roughly 400 µM.

(Values after paper PMC9363494, “C-terminal truncation modulates α-Synuclein’s cytotoxicity and aggregation by promoting the interactions with membrane and chaperone” (Communications Biology, 2022).)
